Source: patent US20210130436A1 (published 2021)

What was measured:
[1] = target: T1, PD-1-Fc (UniProt Q15116 25-167); experiment: ForteBio (BLI), PD-1-Fc
T1 construct: not shown: Fc not described

[2] = target: T2, human PD-L1, full-length, on transduced CHO cells (human, UniProt Q9NZQ7 19-290); experiment: flow cytometry MFI on CHO/huPD-L1 relative to WT CD80 ECD-Fc (R&D)
T2 construct: Full-length surface expression construct transduced into CHO cells by lentivirus; also called huPD-L1; CD274

[3] = target: T3, human CTLA-4, full-length, on transduced CHO cells (human, UniProt P16410 36-223); experiment: flow cytometry MFI on CHO/huCTLA4 relative to WT CD80 ECD-Fc (R&D)
T3 construct: Full-length surface expression construct transduced into CHO cells by lentivirus; also called huCTLA4
T3 sequence (P16410 36-223): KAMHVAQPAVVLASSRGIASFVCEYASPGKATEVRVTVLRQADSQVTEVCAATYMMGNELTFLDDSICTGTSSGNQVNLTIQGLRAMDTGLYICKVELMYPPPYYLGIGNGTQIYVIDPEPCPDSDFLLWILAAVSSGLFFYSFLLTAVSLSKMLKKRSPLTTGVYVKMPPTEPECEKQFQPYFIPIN

[4] = target: T2, human PD-L1, full-length, on transduced …; experiment: flow cytometry; binding to CHO/huPD-L1 compared to binding to Jurkat (CD28)
[5] = target: T4, human CD28, endogenous on Jurkat/IL2 reporter cells (human, UniProt P10747 19-220); experiment: flow cytometry MFI on Jurkat (CD28) relative to WT CD80 ECD-Fc (R&D)
T4 construct: Endogenously expressed on Jurkat/IL2 reporter cells

[6] = target: T5, human PD-L1, expressed on cells (human, UniProt Q9NZQ7 19-290); experiment: flow cytometry on CHO/PD-L1 cells, then fluorescently conjugated PD-1-Fc (FIG. 9D)
T5 construct: On CHO/PD-L1, K562/OKT3/PD-L1 and CHO/OKT3/PD-L1 aAPC, huPD-L1-transduced MC38 cells, or primary human monocytes; also called huPD-L1; hPD-L1
T5 sequence (Q9NZQ7 19-290): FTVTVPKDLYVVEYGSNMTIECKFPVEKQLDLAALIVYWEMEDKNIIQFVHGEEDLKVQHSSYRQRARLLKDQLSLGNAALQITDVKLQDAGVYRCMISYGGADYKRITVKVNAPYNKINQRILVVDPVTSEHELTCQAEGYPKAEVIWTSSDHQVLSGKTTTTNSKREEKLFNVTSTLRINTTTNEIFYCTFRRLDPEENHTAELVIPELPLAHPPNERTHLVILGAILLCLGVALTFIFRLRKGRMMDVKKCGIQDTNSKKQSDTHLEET

[7] = target: T6, CD96 (UniProt P40200 22-585, limits assumed); experiment: flow cytometry on cells expressing CD96
T6 construct: whole, on cells
T6 sequence (looked up): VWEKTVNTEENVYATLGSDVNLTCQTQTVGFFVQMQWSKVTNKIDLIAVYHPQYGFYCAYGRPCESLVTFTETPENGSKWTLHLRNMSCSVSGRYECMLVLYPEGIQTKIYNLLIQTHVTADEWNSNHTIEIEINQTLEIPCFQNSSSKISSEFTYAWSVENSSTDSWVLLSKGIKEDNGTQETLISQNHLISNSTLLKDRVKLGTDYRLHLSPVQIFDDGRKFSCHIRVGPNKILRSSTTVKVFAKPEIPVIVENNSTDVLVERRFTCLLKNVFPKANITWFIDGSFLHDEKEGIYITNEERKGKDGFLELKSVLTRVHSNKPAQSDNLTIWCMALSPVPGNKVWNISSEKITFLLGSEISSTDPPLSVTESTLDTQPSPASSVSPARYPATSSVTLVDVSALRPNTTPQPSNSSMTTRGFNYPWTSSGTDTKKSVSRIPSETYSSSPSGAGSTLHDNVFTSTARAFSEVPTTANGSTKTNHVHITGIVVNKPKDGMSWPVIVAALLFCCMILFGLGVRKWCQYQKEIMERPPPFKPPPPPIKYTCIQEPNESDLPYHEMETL

[8] = target: T7, human CD28, full length, expressed on transfected HEK293 cells (human, UniProt P10747 19-220); experiment: flow cytometry, HEK293 cells transfected with human CD28
T7 construct: Full-length surface expression construct from Genscript

T2 sequence (Q9NZQ7 19-290): as the sequence (Q9NZQ7 19-290) above
T1 sequence (Q15116 25-167): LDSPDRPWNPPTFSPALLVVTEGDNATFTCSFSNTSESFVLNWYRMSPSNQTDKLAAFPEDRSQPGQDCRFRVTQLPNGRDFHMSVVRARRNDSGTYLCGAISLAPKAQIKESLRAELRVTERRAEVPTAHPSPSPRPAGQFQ

B1: PD-L2 V89D IgV-Fc (Fc fusion, not shown: a dimerising Fc or GST)
chain: LFTVTVPKELYIIEHGSNVTLECNFDTGSHVNLGAITASLQKVENDTSPHRERATLLEEQLPLGKASFHIPQVQVRDEGQYQCIIIYGDAWDYKYLTLKVKA
[1]
  Response Units: 0.005 Response Units

B2: variant CD80 IgV-Fc E35D/M47V/A71G (Fc fusion, not shown: a dimerising Fc or GST)
chain: VIHVTKEVKEVATLSCGHNVSVEELAQTRIYWQKDKKMVLTMMSGDVNIWPEYKNRTIFDITNNLSIVILGLRPSDEGTYECVVLKYEKDAFKREHLAEVTLSVKAD
[2]
  Fold change to WT CD80: 3.05 fold
[3]
  Fold change to WT CD80: 1.44 fold
[4]
  Ratio of PDL1:CD28: 6 ratio
[5]
  Fold change to WT CD80: 0.35 fold

B3: CD80 variant H18Y/V22A/E35D/M47V/T62S/A71G IgV (SEQ ID NO: 2275)-Fc (inert) (Fc fusion, not shown: small tags and cut ends)
chain: VIHVTKEVKEVATLSCGYNVSAEELAQTRIYWQKDKKMVLTMMSGDVNIWPEYKNRTIFDISNNLSIVILGLRPSDEGTYECVVLKYEKDAFKREHLAEVTLSVKADEPKSSDKTHTCPPCPAPEAEGAPSVFLFPPKPKDTLMISRTPEVTCVVVDVSHEDPEVKFNWYVDGVEVHNAKTKPREEQYNSTYRVVSVLTVLHQDWLNGKEYKCKVSNKALPAPIEKTISKAKGQPREPQVYTLPPSREEMTKNQVSLTCLVKGFYPSDIAVEWESNGQPENNYKTTPPVLDSDGSFFLYSKLTVDKSRWQQGNVFSCSVMHEALHNHYTQKSLSLSPG
notes: also called H18Y/V22A/E35D/M47V/T62S/A71G CD80 IgV-Fc; CD80 vIgD-Fc
[6]
  binding result: binds

B4: CD112 Y33H/N47K/Q79R/N106Y/A112V IgV-Fc (Fc fusion, not shown: a dimerising Fc or GST)
chain: QDVRVQVLPEVRGQLGGTVELPCHLLPPVPGLHISLVTWQRPDAPAKHQNVAAFHPKMGPSFPSPKPGSERLSFVSAKRSTGQDTEAELQDATLALHGLTVEDEGYYTCEFVTFPKGSVRGMTWLRV
[7]
  MFI at 100 nM: 1680 MFI

B5: WT CD80 ECD-Fc (inert) (Fc fusion, not shown: a dimerising Fc or GST)
chain: VIHVTKEVKEVATLSCGHNVSVEELAQTRIYWQKEKKMVLTMMSGDMNIWPEYKNRTIFDITNNLSIVILALRPSDEGTYECVVLKYEKDAFKREHLAEVTLSVKADFPTPSISDFEIPTSNIRRIICSTSGGFPEPHLSWLENGEELNAINTTVSQDPETELYAVSSKLDFNMTTNHSFMCLIKYGHLRVNQTFNWNTTKQEHFPDN
notes: also called wild-type CD80-ECD-Fc (inert)
[8]
  MFI at 66.6 nM: 3070 MFI
